# Legend:
# [1] = biological target: rhesus CD18 (rhesus) (UniProt H9Z8N5); assay: saturation binding, rhesus leukocytes, donor 1, Kd(app)
# [2] = biological target: human CD18 (human) (UniProt P05107); assay: cell-based or functional assay
# [3] = biological target: rhesus CD18 (rhesus) (UniProt H9Z8N5); assay: cell-based or functional assay
# [4] = biological target: rhesus CD18 (rhesus) (UniProt H9Z8N5); assay: saturation binding, rhesus leukocytes, donor 2, Kd(app)
# human CD18 (human), sequence (P05107 23-769): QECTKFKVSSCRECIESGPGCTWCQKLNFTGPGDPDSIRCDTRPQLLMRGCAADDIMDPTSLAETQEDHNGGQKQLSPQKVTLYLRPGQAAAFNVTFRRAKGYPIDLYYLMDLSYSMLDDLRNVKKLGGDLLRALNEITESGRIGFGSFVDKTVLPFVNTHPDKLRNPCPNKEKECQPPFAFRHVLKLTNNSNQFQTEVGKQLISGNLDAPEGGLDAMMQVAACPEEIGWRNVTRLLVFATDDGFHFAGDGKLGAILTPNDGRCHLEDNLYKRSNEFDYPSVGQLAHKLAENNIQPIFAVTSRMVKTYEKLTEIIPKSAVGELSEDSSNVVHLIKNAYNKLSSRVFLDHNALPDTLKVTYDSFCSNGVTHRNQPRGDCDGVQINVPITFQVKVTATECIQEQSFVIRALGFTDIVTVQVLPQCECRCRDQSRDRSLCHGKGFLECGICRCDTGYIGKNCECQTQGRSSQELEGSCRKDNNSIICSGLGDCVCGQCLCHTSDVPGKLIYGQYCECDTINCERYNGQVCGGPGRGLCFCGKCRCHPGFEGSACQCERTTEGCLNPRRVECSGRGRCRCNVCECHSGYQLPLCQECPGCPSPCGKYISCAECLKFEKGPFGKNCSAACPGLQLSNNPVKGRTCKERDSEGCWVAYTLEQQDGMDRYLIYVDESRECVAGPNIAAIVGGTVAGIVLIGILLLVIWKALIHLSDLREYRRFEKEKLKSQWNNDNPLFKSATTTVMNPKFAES
substance,measurement,setting,value
murine anti-human CD18 antibody MHM23,Kd,[1],3.9 nM
same,"IC50, blocking of cell adhesion, Rh/HuCD11a:HuK",[2],1.4 nM
same,"IC50, blocking of cell adhesion, RhLy:HuICAM",[3],1.2 nM
same,"IC50, blocking of cell adhesion, RhLy:HuK",[3],1.6 nM
same,Kd,[4],4.5 nM
